Among the data in PMC6250738 are stoichiometry N values, retold here.

What all share (experiment): SEC; Superdex 200 10/30 GL, PBS, native conditions; MW from elution volume against protein standards
Background: Size exclusion chromatography separates by hydrodynamic size, large species first.

Assay [1] has as its target NanoLuc luciferase-TriggerTrimer-galectin-3 trimeric nanoassembly (deep sea shrimp | not stated | human).
Assay [2] addresses chondroitinase ABC I-TriggerTrimer-galectin-3 trimeric nanoassembly.
Assay [3] has as its target superfolder green fluorescent protein-TriggerTrimer-galectin-3 trimeric nanoassembly.

With “NanoLuc luciferase-TriggerTrimer-galectin-3 trimeric nanoassembly”, the stoichiometry N – broadly, a count of units in the complex or per binding partner – in assay [1] stood at 3. Substance “chondroitinase ABC I-TriggerTrimer-galectin-3 trimeric nanoassembly” displayed a stoichiometry N in assay [2] of 3. Consider “superfolder green fluorescent protein-TriggerTrimer-galectin-3 trimeric nanoassembly”, for which the stoichiometry N in assay [3] is 3.
